Reference: the DeepSol protein solubility set

Assay: soluble on expression in E. coli; label from the status in PepcDB or PDB records

| Sequence | soluble on expression in E. coli |
| --- | --- |
| MVGPATGRIVVTSRIVVLGGGFGGMYAARALKRRLGRAAEIELVNAENYFVFQPLLPEVGAGSITPAHAVSPLRFLLRDVFVRKATVDSVDFDRRLVTVFQGVQRRPTEIGYDHLVIALGQAADLSKMPGLEEHALTMRTLEDARRLRAHVIGQLEHAQITRLPEVKRGALTFCVVGGGFSGIETAGEMKDLIDRSLKFYPDIDPSEVRMIVVEFADRILGEMSQGLADYATRTLRERGIEVKLGTGVASATGTQLVTTTGEVIDTRTIVATIGNAPSPVVRRMGLPSERGRISVDRTLAVKGRSDVWALGDCALIALKDAPQGPRDYAPPTAQFAVREAEQLAENIASTLTGGTPQPFDYRSKGALASLGARKGVAQVFGLELKGFPAWLLWRFYYLAFLPGLTTRIFVLLNWFMDGISPRSVVQLHTRSVPPTRYVRYRAGDVIYEAGNRSDGFYTVVTGAVEMTRTDPETGLPQVRTIGPGGHFGERLILGATRRQTSVRAAEDTKVLVMDREEFLKLADSFQAFRDYFGPYMARHGMTWPPLGETDGQAAPKPVPTEKDLEHHHHHH | not soluble |
| MVGWRRMGLPADSLSDEALLALVARGDEEAFRALFRRYAGSFLALARRMGLDGAAAEDVVQEAMIRVWQKAKEFDPRRGSARAFLLTLGHHAAVDEVRRRAARPLPLEPDPEREEEAFDLPGPGLDEEGHLDRTRLGRALKALSPEERRVIEVLYYQGYTHREAASLLGLPLGTLKTWARRALSKLKEVLREP | soluble |
| MVHPAFQVFTDALRQRFGEALDAVVLYGSCLHTSDLTEGIADFYVLVSDYRLAYSGRLLAGLNAWLPPNVFYLEVPAAAGVMRAKYAVISTADFERGARQWFHPYIWARFAQPARLLYARDDQTGKRVHTAQASAVLKFISTTLPVLESGPSDLEMIWASGLMLTYAAELRAEREARARHLVRIDPEIYSRLTAAAMPALIPLLSLQADGRYHIGPITPLKRLSARIHWRLRRWQGRVLSVLRLSKATMTFRDCLDYAAWKIERHTGIKVEITPMLRRHPILWGYKVMWQLLRRGVLRLEHHHHHH | not soluble |
| MVIVLVVDSFKDTSNGTSMTAFRFFEALKKRGHVMRVVAPHVDNLGSEEEGYYNLKERYIPLVTEISHKQHILFAKPDEKILRKAFKGADMIHTYLPFLLEKTAVKIAREMQVPYIGSFHLQPEHISYNMKLGWFSWFNMMLFSWFKSSHYRYIHHIHCPSKFIVEELEKYNYGGKKYAISNGFDPMFRFEHPQKSLFDTTPFKIAMVGRYSNEKNQSVLIKAVALSKYKQDIVLLLKGKGPDEKKIKLLAQKLGVKAEFGFVNSNELLEILKTCTLYVHAANVESEAIACLEAISVGIVPVIANSPLSATRQFALDERSLFEPNNAKDLSAKIDWWLENKLERERMQNEYAKSALNYTLENSVIQIEKVYEEAIRDFKNNPHLFKTLSLEHHHHHH | soluble |
| MVIWFFYGFRKIMHLSLKRIIVKCKMSQLDRTSLIQYFNSNGVLISPEALDKLIKYSSSSLIEDLIKNSDGYIDEKYVERYVSRPKVRNDYEVYLPDVRFNASIEDFRKMFVSKYEKLSKIITSSSSMRGSISIKTAKRSQGEVKVVGMVSEVSMTKNGHKRIVIEDLDDSITAIVMKDRGPVNEIILEDEVIGIIGSVSQSSKDPVIFVNEIIRPDIPYRVIDEEKHEPVYVASISDIHVGSKTFRKNEFEAMVRWISGSDPDASRVKYLILSGDVVDGIGVYPDQENDLEILNPLEQYANLAEYLVDVPEDVKVFVMPGNHDTVRLSEPQPVFPGKIRDLFEPNVAFLPNPYNLKLEGKNVLVYHGMSLNDMIELIPGANYDSIGKAIEAILVRRHLSPKYGGNTPMIPSAVDYHVIEEVPDIFITGHIHSHYIGNYKGVRYVNSSTWQSQTEYQKMMNFNPKPSKLTLFDLYSRSVIVKDFDTTLLEHHHHHH | not soluble |
| MVKESIPKEGENIKIQSYKHDGNIHRVWSETTILKGTEHVIIGGNDHTLVTESDGRTWITREPAIVYFHSEYWFNVICMFREDGIYYYCNLSSPFACDEEALKYIDYDLDIKVYPNGKYHLLDEDEYEQHMNQMNYPHDIDIILRRNVDILQQWIEQKKGPFAPDFIKVWKERYKKIRDY | not soluble |
| MVKETHRFETFTEEPIRLIGEEGEWLGDFPLDLEGEKLRRLYRDMLAARMLDERYTILIRTGKTSFIAPAAGHEAAQVAIAHAIRPGFDWVFPYYRDHGLALALGIPLKELLGQMLATKADPNKGRQMPEHPGSKALNFFTVASPIASHVPPAAGAAISMKLLRTGQVAVCTFGDGATSEGDWYAGINFAAVQGAPAVFIAENNFYAISVDYRHQTHSPTIADKAHAFGIPGYLVDGMDVLASYYVVKEAVERARRGEGPSLVELRVYRYGPHSSADDDSRYRPKEEVAFWRKKDPIPRFRRFLEARGLWNEEWEEDVREEIRAELERGLKEAEEAGPVPPEWMFEDVFAEKPWHLLRQEALLKEEL | soluble |
| MVKIRLARFGSKHNPHYRIVVTDARRKRDGKYIEKIGYYDPRKTTPDWLKVDVERARYWLSVGAQPTDTARRLLRQAGVFRQEAREGA | soluble |
| MVKIYLIEHVIGAVAYDENGNIVDYITNPRDLGKITEELLNNEKGIPFSATVELLKKVNPQEVVVENEAEVPKLQALGYRVSYEPYSKVSRIFRESLPKVAIDIKFASNEEDYYNFLHELSLEYTRRKLRSAAQKRDLLAIQAVRAMDDIDKTINLFSERLREWYSIHFPELDKLIEDHEEYATIVSRFGDRGFLTIDSLKELGFNEQRINRILDAAKKSIGADISEDDLSAMRMIANTILDLYNIRRNLNNYLEGVMKEVAPNVTALVGPALGARLLSIAGSLDELAKMPASTIQVLGAEKALFRALRSGGRPPKHGIIFQYPAIHTSPRWQRGKIARALAAKLAIAARVDAFSGRFIGDQLNEQLKKRIDEIKEKFAQHHHHHHHH | soluble |
| MVKKMCQDYLSSSGLCSQETLEINNDKVAESLGITEFLRKKEIHPDNLGPKHLSRDMDGEQLEGASSEKREREAAEEGLASVKRPRREALSNDTTESLAANSRGREKPRPLHALAAGTIVSQEEDIVTVTDAEGRACGWAR | soluble |
| MVKMLTMDKILSKKIKVNWLGGVFWLLPNLLDLFSASKRKASVRPYQSLLELVQENFLNRYDLVHFSFNGDHDFFHFNDLQAIRSFNFTIEEEQLGAMQPDEVLLFEPVDRVTVELDQKGLSLIHSGKAFCASANYFKHWLKRVPQQDKVTLVWRKSGFELKQ | soluble |
| MVKPDWWIREMARKGMIEPFEERLVREGVISYGLSSFGYDLRAAPEWKIFTNVFSSLVDPKNFDPKSFVEYEGEEVVIPPNSFALTRSLEYIRMPDNVIAIALGKSTYARCGIVVNVTPLEPGWEGHVTLEISNTTPLPAKVYAGEGIVQLLFLEGPRPEVTYRDRKGKYQGQKGITLPRV | soluble |
| MVKQLNSVEAFREFIHQYPLAVVHVMRDQCSVCHAVLPQIEDLMQSYPNVPLAVINQSQVEAIAGELNIFTVPVDLIFMNGKEMHRQGRFIDMQRFEHHLKQMNDSVNNDVDEHEYRK | soluble |
| MVKRANTFAMRPLTADDEQVLRDLLDASAALWNEINYQRLMRYNDKDGFEDEDVWDADTGALEGKYKAVLGASTAQTVRRANTEAWRSFFRLKKQFHDESNTSVTEHPEPPGFRGNKDDGRVLKGVVRKDAYSVEWGDRSRLEMVVGEQLRDRHNSPKSRLRLEIVGDPNWSDYEDQGRLELWYDETDCTFRASQPVTVSDDARATPLANEKAALDIGANNLVACTTTTGQQYLYEGRELFQRFRETTREIARLQSKLPEGRYSSKRIRRLYRKRTRRRDHAQETLCRDLLEQLYGEGVDTVYIGGLTDVLETHWSAETNAKTHNFWAFKQFTERLAWTADEYGISVEVRSEAWTSQECPQCGSTDRTTRQQDTLTCPCGFEGHADVTASETFLERHTEKAVRPMARPVRFEWDDHEWSESPRSPARESPKEQRTDPSTVPRDGNVVSGDSLEHHHHHH | not soluble |
| MVKSFRMKALIAGAAVAAAVSAGAVSDVPAAKVLQPTAAYAAETVFSQNNGASGFLPGRYDVQAMAPAMFNWSRESRFAGNTDGTLKWQNDIRTTPQNGAGAVIDGDGTVYLHSRDGEMKAFNPDGSVKWVTGNLGKTYTQSPVLGTNGVIYLASYDKKIYFIDKETGEILTTVPLSGGPSSETVIGSDGTLYFSTLDNYVHAIKPTSKSTWTERWKLKTNGVVSSVPVLAKNGTVYVGTYNYVFYAINSGTGQVKWSRTTSNAFKGYPVIDKDGNIYAGNQDGQLYAYTSTGSLKWTFPLNGFSSSSPAIDHNGNIYIGSGSGELFSISKNGDMNWSFYTDGPVRTAPLIDAKGTVYFGSDDMKVYAADANGNELWSYQTDSNVVSSPQLAEDGTLYIGSYTKLMAFGKLEHHHHHH | soluble |
| MVLLVSQLYGCGDPLPEQRKLSHFDRIKAAGELRVLVRDKRFASSRPASGTAGFERDLLHGFASHLGVRLRFIPANARPVTERLLRGEADFAAMPSRSVAGEVLPTGGPPPFAGVTPVGGWVGALAGGLKGMARNSAQKFNPRMAFAEYSPRRVHTLKWAFPENAGVRGPRALAWMFAEPEGDHLAMMAEHFLRDMCERKGLDPLLDRHFGHNEGADPALDRNLRESYGRQLGKYRRTFVEAAARHGLDWRLLAAVAFQESRWDGHAVSAEGVRGMMMLTGATARELGVDRNNPGQSIHGGARYLKAVWSRLPEEIAEPDRTWFALSAYNLGPGRVETARRLAKKLGRDPNKWAEVKKTLPLVGAGRSGGRFRHPSARGKLTVQYVNRVRHYYDLLVRLEHHHHHH | soluble |
| MVLPERDSPCGWTRMIPLPSDGSVSIAGRSPRLNVEAVEAVVTLPTFKRPEQVLDTLASLRAQRTGRRFAVIVMENEAEVREGAKAVLPLFERGEMPGMVIVAQERGNCSAYNAGWQTAMLHFPNFRHLLVIDDDEIADPHWLERMCMAAETLGADIVGGPQVPVFADAAHARWAEHPVFAPPYRETGRVPALYSSGNLLVGRNVLVAMEPPFLDLKFNFMGGGDSDFLSRAVQNGFVLGWCAEAKVRETVPARRVEPDWIRARSLRNGVISTLVEKKKRAGTPLAGAEVLAKSLALLAAAPFRGLIRLARTGSPAIAIYPVHVALGRVLAEFGYANEQYRQPEKN | not soluble |
| MVNTLAFEYSYKALIVYCRINNNNFSLVKLKSNLNFSVPKIFNDFVIKNNIDLNQIELIINSCGPGSFTGLRISLSFVKGLALGLSIPFVNISTLDVFANLVENNPSAVVLTFTAGKYFLGNYKNCKLIGKILCFSKKDLFEYLNQIDPNSVLIGNNLEDVCKECNYKFKIIENLSSFGKILTELGVAKYLKNRKGDDILSGPLYIRQSDAEVNFHSLEHHHHHH | not soluble |
| MVPCWNHGNITRSKAEELLSRTGKDGSFLVRASESISRAYALCVLYRNCVYTYRILPNEDDKFTVQASEGVSMRFFTKLDQLIEFYKKENMGLVTHLQYPVPLEEEDTGDDPEEDTVESVVSPPELPPRNIPLTASSCEAKEVPFSNENPRATETSRPSLSETLFQRLQSMDTSGLPEEHLKAIQDYLSTQLAQDSEFVKTGSSSLPHLKKLTTLLCKELYGEVIRTLPSLESLQRLFDQQLSPGLRPRPQVKG | soluble |
| MVQAFEPYIALNSHVRKPVIHISLNPSPKDILSKEQMTVLAQEFMEKFGYGNQPYIVWLHEDIDRKHMHIISVRINEKGEKIDHNREAIRAQNICRDMEVKYGLHSTLGEHSERELLSLQKVDYPKGDVKAQVKHTARTLLECYNCHSLAEYNTLLNLYNVTVYEVRGSVDGKEYYGIMYGALDDDGQQAGTPFKSSKFGKVFGYEALQKKFAATAEKVLEHHHHHH | not soluble |
